Source: patent US20220185901A1 (Bayer, published 2022)

T1: hActivin RIA/ALK-2 Fc Chimera (TPP-17233) (human, UniProt Q04771 23-123)
T1 construct: also called human ALK-2-Fc
T1 sequence: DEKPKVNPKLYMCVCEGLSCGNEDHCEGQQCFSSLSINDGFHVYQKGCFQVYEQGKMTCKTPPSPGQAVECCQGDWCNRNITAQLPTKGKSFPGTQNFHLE

B1: TPP-14696 (13654-13667-scFv-kih-IgG2_Fc) (bispecific antibody)
chain 1: EVQLLESGGGLVQPGGSLRLSCAASGFTFSIYAMSWVRQAPGKGLEWVSAISGSGGSTYYADSVKGRFTISRDNSKNTLYLQMNSLRAEDTAVYYCARDFDYWGQGTLVTVTSSGGGGSGGGGSGGGGSQSVLTQPPSASGTPGQRVTISCSGSSSNIGSNYVYWYQQLPGTAPKLLIYGNINRPSGVPDRFSGSKSGTSASLAISGLRSEDEADYYCAAWDDSLNGRVFGGGTKLTVLGGGGSGGGGSGGGGSGVECPPCPAPPVAGPSVFLFPPKPKDTLMISRTPEVTCVVVDVSHEDPEVQFNWYVDGVEVHNAKTKPREEQFNSTFRVVSVLTVVHQDWLNGKEYKCKVSNKGLPAPIEKTISKTKGQPREPQVYTLPPCREEMTKNQVSLWCLVKGFYPSDIAVEWESNGQPENNYKTTPPMLDSDGSFFLYSKLTVDKSRWQQGNVFSCSVMHEALHNHYTQKSLSLSPG
chain 2: EVQLLESGGGLVQPGGSLRLSCAASGFTFSNAWMNWVRQAPGKGLEWVSSISSSSSYIYYADSVKGRFTISRDNSKNTLYLQMNSLRAEDTAVYYCARAVAAGGMFWGLDQWGQGTLVTVTSSGGGGSGGGGSGGGGSQSVLTQPPSASGTPGQRVTISCSGSRSNIGSNSVHWYQQLPGTAPKLLIYGNSNRPSGVPDRFSGSKSGTSASLAISGLRSEDEADYYCQSYDSSLNDHVVFGGGTKLTVLGGGGSGGGGSGGGGSGVECPPCPAPPVAGPSVFLFPPKPKDTLMISRTPEVTCVVVDVSHEDPEVQFNWYVDGVEVHNAKTKPREEQFNSTFRVVSVLTVVHQDWLNGKEYKCKVSNKGLPAPIEKTISKTKGQPREPQVCTLPPSREEMTKNQVSLSCAVKGFYPSDIAVEWESNGQPENNYKTTPPMLDSDGSFFLVSKLTVDKSRWQQGNVFSCSVMHEALHNHYTQKSLSLSPG
notes: scFv-Fc (kih) heterodimer with IgG2 Fc; also called TPP-14669 (as printed in some places); BsAB TPP-14696
B2: TPP-14719 (13660-13469-scFv-kih-IgG2_Fc) (bispecific antibody)
chain 1: EVQLLESGGGLVQPGGSLRLSCAASGFTFSSYAMSWVRQAPGKGLEWVANINQDGSEKNYVDSMRGRFTISRDNSKNTLYLQMNSLRAEDTAVYYCAREFDYWGQGTLVTVTSSGGGGSGGGGSGGGGSQSVLAQPPSASGTPGQRVTISCSGSSSNIGSNYVYWYQQLPGTAPKLLIYGNNKRPSGVPDRFSGSKSGTSASLAISGLRSEDEADYYCAAWDDSLNGRVFGGGTKLTVLGGGGSGGGGSGGGGSGVECPPCPAPPVAGPSVFLFPPKPKDTLMISRTPEVTCVVVDVSHEDPEVQFNWYVDGVEVHNAKTKPREEQFNSTFRVVSVLTVVHQDWLNGKEYKCKVSNKGLPAPIEKTISKTKGQPREPQVYTLPPCREEMTKNQVSLWCLVKGFYPSDIAVEWESNGQPENNYKTTPPMLDSDGSFFLYSKLTVDKSRWQQGNVFSCSVMHEALHNHYTQKSLSLSPG
chain 2: EVQLLESGGGLVQPGGSLRLSCAASGFTFSDYYMTWIRQAPGKGLEWVSSISGGSTYYADSRKGRFTISRDNSENTLYLQMNSLRAEDTAVYYCARDFGVAGWFGQYGMDVWGQGTLVTVSSGGGGSGGGGSGGGGSQSVLTQPPSASGTPGQRVTISCTGSSSNIGAGYDVHWYQQLPGTAPKLLIYRSNQRPSGVPDRFSGSKSGTSASLAISGLRSEDEADYYCSSYAGNYNLVFGGGTKLTVLGGGGSGGGGSGGGGSGVECPPCPAPPVAGPSVFLFPPKPKDTLMISRTPEVTCVVVDVSHEDPEVQFNWYVDGVEVHNAKTKPREEQFNSTFRVVSVLTVVHQDWLNGKEYKCKVSNKGLPAPIEKTISKTKGQPREPQVCTLPPSREEMTKNQVSLSCAVKGFYPSDIAVEWESNGQPENNYKTTPPMLDSDGSFFLVSKLTVDKSRWQQGNVFSCSVMHEALHNHYTQKSLSLSPG
notes: scFv-Fc (kih) heterodimer with IgG2 Fc; also called BsAB TPP-14719

Legend:
[1] = molecular target: ALK-1/BMPR-2 receptor pair on PathHunter U2OS ALK-1/BMPR-2 dimerization cells (DiscoverX 93-0962C3) (UniProt P37023 22-503; Q13873 27-1038); assay: cell-based or functional assay
[2] = molecular target: T2, human ALK-1-Fc (TPP-11726) (human); assay: ELISA: human ALK-1-Fc coated at 2 µg/ml, TPP-14696 titrated, detected with anti-human IgG2 (Fc specific) then anti-mouse IgG-HRP; readout Relative Fluorescence Units
T2 construct: Used for panning, screening and SPR; also called hALK-1-Fc
Experimental: (§1) Antigens human ALK-1-Fc and human ALK-2-Fc were coated at 2 μg/ml and binding of TPP-14696 and TPP-14719 was detected by anti-human IgG2 (Fc specific) antibody (Sigma 19513) followed by anti-mouse IgG (whole molecule)—HRP (Sigma A9044, 1:40000).
(§2) In order to determine the selectivity for the ALK-1/BMPR-2 receptor complex compared to the ALK-2/BMPR-2 receptor, the specificity of the agonistic antibodies has been evaluated by ELISA (FIG. 9). The antigens human ALK-1-Fc and human ALK-2-Fc were coated at 2 μg/ml and binding of TPP-14696 and TPP-14719 was detected by anti-human IgG2 (Fc specific) antibody (Sigma 19513) followed by anti-mouse IgG (whole molecule)—HRP (Sigma A9044, 1:40000).

[3] = molecular target: T1, hActivin RIA/ALK-2 Fc Chimera …; assay: ELISA: human ALK-2-Fc coated at 2 µg/ml, TPP-14696 titrated, detected with anti-human IgG2 (Fc specific) then anti-mouse IgG-HRP; readout Relative Fluorescence Units
Experimental: as §1, §2

[4] = molecular target: T2, human ALK-1-Fc (TPP-11726); assay: ELISA: human ALK-1-Fc coated at 2 µg/ml, TPP-14719 titrated, detected with anti-human IgG2 (Fc specific) then anti-mouse IgG-HRP; readout Relative Fluorescence Units
Experimental: as §1, §2

[5] = molecular target: T1, hActivin RIA/ALK-2 Fc Chimera …; assay: ELISA: human ALK-2-Fc coated at 2 µg/ml, TPP-14719 titrated, detected with anti-human IgG2 (Fc specific) then anti-mouse IgG-HRP; readout Relative Fluorescence Units
Experimental: as §1, §2

ALK-1/BMPR-2 receptor pair on PathHunter U2OS ALK-1/BMPR-2 dimerization cells (DiscoverX 93-0962C3), sequence (P37023 22-503, chain 1 of 2): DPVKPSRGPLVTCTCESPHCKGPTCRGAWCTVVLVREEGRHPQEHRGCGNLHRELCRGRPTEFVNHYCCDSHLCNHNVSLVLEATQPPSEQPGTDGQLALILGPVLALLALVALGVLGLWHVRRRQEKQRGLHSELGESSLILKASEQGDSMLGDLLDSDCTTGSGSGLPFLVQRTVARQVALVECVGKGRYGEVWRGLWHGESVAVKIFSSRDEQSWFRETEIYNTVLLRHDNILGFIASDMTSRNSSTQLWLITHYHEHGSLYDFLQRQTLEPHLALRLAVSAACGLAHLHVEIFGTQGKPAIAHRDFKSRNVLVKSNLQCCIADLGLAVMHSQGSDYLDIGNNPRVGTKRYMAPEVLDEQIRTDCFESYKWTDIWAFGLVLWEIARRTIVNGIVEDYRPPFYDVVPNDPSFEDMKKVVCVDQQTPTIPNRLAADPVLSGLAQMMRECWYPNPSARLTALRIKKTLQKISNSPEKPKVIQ
ALK-1/BMPR-2 receptor pair on PathHunter U2OS ALK-1/BMPR-2 dimerization cells (DiscoverX 93-0962C3), sequence (Q13873 27-1038, chain 2 of 2): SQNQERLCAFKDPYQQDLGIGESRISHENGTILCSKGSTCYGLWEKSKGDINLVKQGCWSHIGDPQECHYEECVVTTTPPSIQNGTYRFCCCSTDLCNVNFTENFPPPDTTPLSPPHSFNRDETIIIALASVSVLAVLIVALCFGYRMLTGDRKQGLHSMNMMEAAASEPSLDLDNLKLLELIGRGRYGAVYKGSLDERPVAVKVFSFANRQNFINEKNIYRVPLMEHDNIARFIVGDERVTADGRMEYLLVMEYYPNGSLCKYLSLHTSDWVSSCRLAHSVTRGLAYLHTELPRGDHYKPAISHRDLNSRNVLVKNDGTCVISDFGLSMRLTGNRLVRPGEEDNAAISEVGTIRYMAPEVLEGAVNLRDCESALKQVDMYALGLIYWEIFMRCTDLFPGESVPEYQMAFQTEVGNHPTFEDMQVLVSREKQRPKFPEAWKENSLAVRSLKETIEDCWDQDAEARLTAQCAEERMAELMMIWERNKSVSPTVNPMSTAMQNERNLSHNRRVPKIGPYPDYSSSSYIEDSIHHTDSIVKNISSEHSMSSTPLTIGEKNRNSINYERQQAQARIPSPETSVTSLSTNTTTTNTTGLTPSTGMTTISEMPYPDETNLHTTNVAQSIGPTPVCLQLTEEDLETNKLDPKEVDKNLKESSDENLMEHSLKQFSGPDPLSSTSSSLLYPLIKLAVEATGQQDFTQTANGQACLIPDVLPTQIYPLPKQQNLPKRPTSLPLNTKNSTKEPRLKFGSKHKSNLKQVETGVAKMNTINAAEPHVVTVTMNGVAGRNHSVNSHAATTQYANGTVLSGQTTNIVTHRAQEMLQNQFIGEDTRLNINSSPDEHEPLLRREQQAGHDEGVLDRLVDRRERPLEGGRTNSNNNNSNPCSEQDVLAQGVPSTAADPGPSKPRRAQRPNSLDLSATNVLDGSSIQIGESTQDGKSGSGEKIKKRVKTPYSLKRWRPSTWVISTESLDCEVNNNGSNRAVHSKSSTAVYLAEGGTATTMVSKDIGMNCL
T2 sequence (chain, as listed by the source limits assumed): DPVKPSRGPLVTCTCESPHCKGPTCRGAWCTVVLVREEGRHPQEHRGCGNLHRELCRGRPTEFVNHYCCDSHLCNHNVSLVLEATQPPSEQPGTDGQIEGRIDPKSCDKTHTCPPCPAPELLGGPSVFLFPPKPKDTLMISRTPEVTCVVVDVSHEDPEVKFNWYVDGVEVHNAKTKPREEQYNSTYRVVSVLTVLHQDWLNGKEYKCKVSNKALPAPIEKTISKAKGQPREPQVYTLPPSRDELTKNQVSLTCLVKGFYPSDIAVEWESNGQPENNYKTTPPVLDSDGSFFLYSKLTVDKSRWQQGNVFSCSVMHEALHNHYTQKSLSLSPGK

Binder | Agonistic activity in PathHunter U2OS cells EC50 [1] | EC50 [2] | binding result [3] | EC50 [4] | binding result [5]
B1 | 6.3 nM | 1.01 nM | no binding |  | 
B2 | 6.9 nM |  |  | 0.747 nM | no binding
